{"source": "paper PMC6312924", "key": {"[1]": {"molecular_target": "HA-tagged Atp1a3 T705A (mouse) (UniProt Q8VCE0)", "assay": "co-IP; HEK 293T cells co-transfected with HA-tagged Atp1a3 (WT, TA or TD) and YFP-β1 or YFP-β2; α3 precipitated with anti-HA beads (clone 3F10) 2 h at 4°C in IP buffer (20 mM Tris pH 8.0, 150 mM NaCl, 1% NP40, 10% glycerol); β detected with a GFP antibody; band densitometry normalised to WT"}, "[2]": {"molecular_target": "HA-tagged Atp1a3 T705D (mouse) (UniProt Q8VCE0)", "assay": "co-IP; HEK 293T cells co-transfected with HA-tagged Atp1a3 (WT, TA or TD) and YFP-β1 or YFP-β2; α3 precipitated with anti-HA beads (clone 3F10) 2 h at 4°C in IP buffer (20 mM Tris pH 8.0, 150 mM NaCl, 1% NP40, 10% glycerol); β detected with a GFP antibody; band densitometry normalised to WT"}}, "data": [{"substance": "YFP-tagged Na,K-ATPase β1 subunit (rat) (from UniProt P07340 1-304) (natural protein)", "values": [{"measurement": "co-precipitated higher (complex-glycan) β band, relative intensity normalized to WT (normalized to WT)", "setting": "[1]", "result": 58.3}, {"measurement": "co-precipitated lower (intracellular) β band, relative intensity normalized to WT (normalized to WT)", "setting": "[1]", "result": 101}, {"measurement": "co-precipitated higher (complex-glycan) β band, relative intensity normalized to WT (normalized to WT)", "setting": "[2]", "result": 6.59}, {"measurement": "co-precipitated lower (intracellular) β band, relative intensity normalized to WT (normalized to WT)", "setting": "[2]", "result": 95}]}, {"substance": "YFP-tagged Na,K-ATPase β2 subunit (human) (from UniProt P14415 1-290) (natural protein)", "values": [{"measurement": "co-precipitated higher (complex-glycan) β band, relative intensity normalized to WT (normalized to WT)", "setting": "[1]", "result": 16.3}, {"measurement": "co-precipitated lower (intracellular) β band, relative intensity normalized to WT (normalized to WT)", "setting": "[1]", "result": 82.7}, {"measurement": "co-precipitated higher (complex-glycan) β band, relative intensity normalized to WT (normalized to WT)", "setting": "[2]", "result": 2.81}, {"measurement": "co-precipitated lower (intracellular) β band, relative intensity normalized to WT (normalized to WT)", "setting": "[2]", "result": 80.5}]}]}
